This note sets out measurements from US20240101645A1 (HENRY M JACKSON FOUNDATION FOR THE ADVANCEMENT OF MILITARY …, published 2024).

First the molecules themselves.
T1: HCoV-229E spike antigens (bead panel) (HCoV-229E, UniProt P15423 16-1115)
T1 sequence: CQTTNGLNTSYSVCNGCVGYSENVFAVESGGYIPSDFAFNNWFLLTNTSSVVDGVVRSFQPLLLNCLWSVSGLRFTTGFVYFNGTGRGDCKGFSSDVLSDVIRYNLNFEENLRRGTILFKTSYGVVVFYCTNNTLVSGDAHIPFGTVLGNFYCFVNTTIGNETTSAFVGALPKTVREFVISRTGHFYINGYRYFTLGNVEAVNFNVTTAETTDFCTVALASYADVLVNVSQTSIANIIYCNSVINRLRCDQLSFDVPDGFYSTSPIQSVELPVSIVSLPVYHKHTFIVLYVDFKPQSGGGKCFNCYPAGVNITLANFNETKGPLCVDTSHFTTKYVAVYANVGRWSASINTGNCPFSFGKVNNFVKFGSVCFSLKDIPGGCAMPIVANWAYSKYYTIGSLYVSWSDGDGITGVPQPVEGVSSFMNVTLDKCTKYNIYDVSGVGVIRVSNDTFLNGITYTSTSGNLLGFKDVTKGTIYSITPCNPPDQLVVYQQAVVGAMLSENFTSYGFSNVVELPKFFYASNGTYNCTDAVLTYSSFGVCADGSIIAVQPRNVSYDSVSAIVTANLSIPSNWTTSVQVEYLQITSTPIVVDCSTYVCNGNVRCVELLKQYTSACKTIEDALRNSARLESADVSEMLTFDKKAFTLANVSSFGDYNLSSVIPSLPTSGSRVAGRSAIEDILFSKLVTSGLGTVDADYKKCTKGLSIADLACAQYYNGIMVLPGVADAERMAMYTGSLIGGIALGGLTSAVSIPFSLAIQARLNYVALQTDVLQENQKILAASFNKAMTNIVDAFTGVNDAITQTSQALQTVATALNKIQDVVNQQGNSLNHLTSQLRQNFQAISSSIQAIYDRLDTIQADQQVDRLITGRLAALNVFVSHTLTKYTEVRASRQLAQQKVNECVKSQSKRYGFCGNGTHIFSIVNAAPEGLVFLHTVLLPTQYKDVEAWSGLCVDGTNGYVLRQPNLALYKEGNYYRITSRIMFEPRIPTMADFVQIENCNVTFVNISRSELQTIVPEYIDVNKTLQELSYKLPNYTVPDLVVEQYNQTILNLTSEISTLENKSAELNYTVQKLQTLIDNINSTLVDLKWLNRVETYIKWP

T2: HCoV-NL63 spike antigens (bead panel) (HCoV-NL63, UniProt Q6Q1S2 19-1296)
T2 sequence: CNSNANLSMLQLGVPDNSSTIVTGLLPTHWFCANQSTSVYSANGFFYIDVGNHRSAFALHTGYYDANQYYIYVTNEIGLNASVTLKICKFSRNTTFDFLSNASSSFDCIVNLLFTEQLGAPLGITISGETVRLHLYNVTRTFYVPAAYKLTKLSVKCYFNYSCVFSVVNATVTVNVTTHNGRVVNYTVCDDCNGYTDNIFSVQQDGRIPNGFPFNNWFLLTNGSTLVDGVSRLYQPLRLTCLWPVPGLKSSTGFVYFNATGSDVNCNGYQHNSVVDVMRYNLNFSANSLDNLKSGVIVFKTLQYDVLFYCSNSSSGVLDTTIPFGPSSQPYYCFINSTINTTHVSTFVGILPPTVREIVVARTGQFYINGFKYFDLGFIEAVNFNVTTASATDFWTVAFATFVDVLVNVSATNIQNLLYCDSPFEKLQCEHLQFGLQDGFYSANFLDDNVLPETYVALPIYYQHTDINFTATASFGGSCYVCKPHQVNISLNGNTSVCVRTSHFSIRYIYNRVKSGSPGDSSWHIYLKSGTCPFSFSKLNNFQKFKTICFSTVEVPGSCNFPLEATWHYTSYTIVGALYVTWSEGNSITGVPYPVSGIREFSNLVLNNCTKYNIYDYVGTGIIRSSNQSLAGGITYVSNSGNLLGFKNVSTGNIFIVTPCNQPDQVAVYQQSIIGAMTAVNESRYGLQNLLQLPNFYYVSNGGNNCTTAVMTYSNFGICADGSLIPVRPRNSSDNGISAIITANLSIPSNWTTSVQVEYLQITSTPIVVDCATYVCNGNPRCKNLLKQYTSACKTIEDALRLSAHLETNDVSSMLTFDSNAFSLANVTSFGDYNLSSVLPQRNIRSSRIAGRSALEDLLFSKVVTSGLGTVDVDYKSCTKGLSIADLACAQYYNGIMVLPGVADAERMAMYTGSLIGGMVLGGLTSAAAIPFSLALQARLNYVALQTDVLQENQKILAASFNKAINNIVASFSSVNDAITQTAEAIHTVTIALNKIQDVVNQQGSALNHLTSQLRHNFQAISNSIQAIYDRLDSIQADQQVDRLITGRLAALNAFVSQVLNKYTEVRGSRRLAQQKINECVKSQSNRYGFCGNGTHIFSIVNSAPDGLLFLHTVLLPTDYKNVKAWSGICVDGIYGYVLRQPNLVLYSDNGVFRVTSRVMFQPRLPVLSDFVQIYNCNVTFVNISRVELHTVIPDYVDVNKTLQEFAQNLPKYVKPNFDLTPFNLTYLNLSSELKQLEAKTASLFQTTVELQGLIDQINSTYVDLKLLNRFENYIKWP

B1: COV_1166 (antibody, V domains shown)
VH: EVQLVESGGGLVQPGGSLRLSCAVSGFTFRSFWMSWVRQTPGKGLEWVANIKEDGSEKYYVDSVKGRFTISRDNAKNSLYLQMNSLRAEDTAVYYCAREGRWELLGFAFDIWGQGTMVTVSS
VL: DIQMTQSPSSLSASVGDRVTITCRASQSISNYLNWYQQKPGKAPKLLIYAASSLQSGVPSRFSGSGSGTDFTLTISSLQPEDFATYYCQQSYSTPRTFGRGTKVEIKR
notes: human IgG1
B2: COV_1201 (antibody, V domains shown)
VH: QVQLVQSGAEVKKPGASMKVSCKASGYTFTGYYIHWVRQAPGQGLEWMGRINPNSGGTNYAQKFQGRVTMTRDTSISTAYMELSRLRSDDTAVYYCAREYYYVPYGMDVWGQGTTVTVSS
VL: QSALTQPASVSGSPGQSITISCTGTSSDVGGYNFVSWYQHHPGKAPKLMIYEVSNRPSGVSNRFSGSKSGNTASLTISGLQAEDEADYYCSSYTSSSTYVFGTGTKVTVL
notes: human IgG1
B3: COV_1151 (antibody, V domains shown)
VH: QVQVQQWGAGLLKPSETLSLTCAVYGGSFNNYYWSWIRQPPGKGLEWIGEINHSGSTNYNPSLMSRVTISVDTSKNQFSLKLTSVTAADTAVYFCARGLPVTTFFSSYYGMDVWGQGTTVTVSS
VL: EIVLTQSPGTLSLSPGERATLSCRASQSVSRTYLAWYQQKPGQAPRLLIYGASSRATGIPDRFSGSGSGTDFTLTISRLEPEDFAVYYCQHYGSSPWTFGQGTKVEIRR
notes: human IgG1
B4: COV_2056 (SEQ ID NO:792/797) (antibody, V domains shown)
VH: EVQLVESGGGVVQPGRSLRLSCAASGFTFSIYGMHWVRQAPGKGLEWVALISYDGTNKYYADSVKGRFSISRDDSKNTLYLQMNSLRPEDTAVYYCAKVLMMGDSSGFSLGDAFDIWGQGTMVTVSS
VL: DIQMTQSPSSVSASVGDRVTITCRASQGISNWLAWYQQKPGKAPKLLIYAASSLQSGVPSRFSGSVSGTDFTLTISSLQPEDFATYYCQQANSFPLTFGGGTKVDIKR
B5: COV_1144 (antibody, V domains shown)
VH: EVQLVESGGGLVQPGGSLRLSCAASGFTFRSFWMSWVRQAPGKGLEWVANIKEDASEKHYVDPVKGRFTISRDNAKNSLYLQLNSLRAEDMAVYYCARVGRGYCTNGLCYTAFEYWGQGTLVTVSS
VL: DIQMTQSPSSLSASVGDRVTITCRTSQSISNYLNWYQQKPGKAPKLLIYAASSLQSGVPSRFSGSGSGTDFTLTISSLQPEDFATYYCQQSYSTAWTFGQGTKVEIRR
notes: human IgG1
B6: COV_2004 (antibody, V domains shown)
VH: QVQLVQSGAEVKKPGASVKVSCKASGYTFTGYYMHWVRQAPGQGLEWMGRINPSSGGTNYAQKFQGRVTMTRDTSISTAYMELSSLRSDDTAVYYCATDGDDGENWFDPWGQGTLVIVSS
VL: DIQMTQSPSSLSASVGDRVTITCRASQGISSWLAWYQQKPEKAPKSLIYAASSLQSGVPSRFSGSGSGTDFTLTISSLQPEDFATYYCQQYNSYPYTFGQGTKLEIK
notes: human IgG1
B7: COV_2048 (antibody, V domains shown)
VH: QVQLQESGPGLVKPSETLSLTCTVSGGSISNTSYYWGWIRQPPGKGLEWIGSIYRSGSTYYNPSLKSRVTISIDTSKNQFTLKLSSVTAADTAVYYCARDYYGDYSAKPMEYWGQGTLVTVSS
VL: QSALTQPRSVSGSPGQSVTISCTGTSSDVGGYNYVSWYQQHPGKAPKLLIYDVSKRPSGVPDRFSGSKSGNTASLTISGLQAEDEADYYCCSYAGSYVVFGGGAKLTVLG
notes: human IgG1
B8: COV_2008 (antibody, V domains shown)
VH: QVRVVQSGAEVKNPGASVKVSCKVSGYTLTELSIHWVRQAPGNGLEWMGGFDPEDGETIYAQKFQGRVTMTEDTSTDTAYMELSSLRSDDTAVYYCATAGAITGTPRNFYYYYGMDVWGQGTTVTVSS
VL: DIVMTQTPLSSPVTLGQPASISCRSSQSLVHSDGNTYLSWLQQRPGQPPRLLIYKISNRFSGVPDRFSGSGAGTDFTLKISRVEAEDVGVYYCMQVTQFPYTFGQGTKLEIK
notes: human IgG1
B9: COV_1149 (antibody, V domains shown)
VH: QVQLVESGGGVVQPGRSLRLSCAASGFTFSSYGMHWVRQAPGKGLEWVAVISYDGSNKYYADSVKGRFTISRDNSKNTLYLQMNSLRAEDTAVYYCAKTGGGYSYGLGNVWGQGTLVTVSS
VL: QSALTQPASVSGSPGQSITISCTGTSSDVGGYNYVSWYQQHPGKAPKLMIYDVSNRPSGVSNRFSGSKSGNTASLTISGLQAEDEADYYCSSYTSSSTLVVFGGGTKLTVLG
notes: human IgG1
B10: COV_1170 (antibody, V domains shown)
VH: QVQLVESGGGVVQPGRSLRLSCAASGFTFSTYAMHWVRQAPGKGLEWVALISYDGSNKYYADSVKGRFTISRDNSKNTLDLQMNSLRAEDTAVYYCARSLGGYRTGFDYWGQGTLVTVSS
VL: DIQLTQSPSFLSASVGDRVTITCRASQGISSYLAWYQQKPGKAPKLLIYAASTLQSGVPSRFSGSGSGTEFTLTISSLQPEDFATYYCQQLNSYPPFTFGPGTKVDIKR
notes: human IgG1
B11: COV_1172 (antibody, V domains shown)
VH: QVQLQESGPGLVKPSETLSLTCTVSGGSIRSYYWSWIRQPPGKGLEWIGYIYYSGSTNYSPSLKSRVTISVDTSKNQFSLKLNSVTAADTAVYYCARRGLGYCSGDSCSNAFDIWGQGTMVTVSS
VL: DIQMTQSPSSLSASVGDRVTITCRASQSISSYLNWYQQKPGRAPELLIYDASSLQSGVPSGFSGSGSGTDFTLTISSLQPEDFATYYCQQSYSTPFTFGPGTKVDIKR
notes: human IgG1
B12: COV_2077 (antibody, V domains shown)
VH: QVQLQESGPGLVKPSETLSLTCTVSGGSISSYSWSWIRQPPGKGLEWIGYIYYSGSTNYNPSLKSRVTISVDTSKNQFSLKLSSVTAADTAVYYCARESMGRYSLELRQPESAFDYWGRGTLVTVSS
VL: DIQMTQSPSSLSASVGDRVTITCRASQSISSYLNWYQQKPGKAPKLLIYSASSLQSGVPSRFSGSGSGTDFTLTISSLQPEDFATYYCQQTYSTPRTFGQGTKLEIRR
notes: human IgG1
B13: COV_2123 (antibody, V domains shown)
VH: EVQLVESGGGVVQPGRSLRLSCAASGFTFSSYAMHWVRQAPGKGLEWVAVLSYDGSNKYNADSVKGRFTISRDNSKNTLYLQMNSLRVEDTAMYYCARDGVSVTMVRGVIGPLCDYWGQGTLVTVSS
VL: not shown
notes: human IgG1

For one assay, the target named is T1, HCoV-229E spike antigens (bead panel). As to the kind of experiment: multiplex bead assay.
As for B1, the binding result was “no binding”.

With B2, the binding result is given as “no binding”.

With B3, the binding result was “no binding”.

B4: the binding result was “no binding”.

Take B5: the binding result is recorded as “no binding”.

Regarding B6, the binding result is on record as “no binding”.

As for B7, the binding result is recorded as “no binding”.

B8: the binding result is “no binding”.

As for B9, the binding result is recorded as “no binding”.

B10: the binding result is “no binding”.

For B11, the binding result was “no binding”.

On to B12, for which the binding result is “no binding”.

A further assay addresses T2, HCoV-NL63 spike antigens (bead panel). Kind of assay: multiplex bead assay.
Take B1: the binding result is on record as “no binding”.

In the case of B2, the binding result is on record as “no binding”.

As to B3, the binding result is “no binding”.

With B4, the binding result is reported as “no binding”.

B5: the binding result was “no binding”.

Turning to B6, the binding result is recorded as “no binding”.

As for B7, the binding result is reported as “no binding”.

In the case of B8, the binding result was “no binding”.

As to B13, the binding result was “no binding”.

As for B9, the binding result was “no binding”.

Regarding B10, the binding result is listed as “no binding”.

As to B11, the binding result is “no binding”.

For the molecule B12, the binding result was “no binding”.
